# Paper PMC7094300 (Febs Letters, 2006)
# Biological target: the molecule itself
# Assay: small-angle X-ray scattering + cross-linking + other: enzyme kinetics
protein,measurement,value
SARS CoV main proteinase (enzyme) SGFRKMAFPSGKVEGCMVQVTCGTTTLNGLWLDDTVYCPRHVICTAEDMLNPNYEDLLIRKSNHSFLVQAGNVQLRVIGHSMQNCLLRLKVDTSNPKTPKYKFVRIQPGQTFSVLACYNGSPSGVYQCAMRPNHTIKGSFLNGSCGSVGFNIDYDCVSFCYMHHMELPTGVHAGTDLEGKFYGPFVDRQTAQAAGTDTTITLNVLAWLYAAVINGDRWFLNRFTTTLNDFNLVAMKYNYEPLTQDHVDILGPLSAQTGIAVLDMCAALKELLQNGMNGRTILGSTILEDEFTPFDVVRQCSGVTFQ,stoichiometry N,2
